Results taken from PMC7064778.
Where two headings read alike, the source gives them in different places.

Assays:
[1] = molecular target: PyoS5_(1–315) (P. aeruginosa) (UniProt Q9I4Y4); assay: SPR
[2] = molecular target: PyoS5_(1–315) (P. aeruginosa) (UniProt Q9I4Y4); assay: SPR; remark: listed apart in the source

Substance: TonB1_(109–342) (domain or fragment)
- Kd [1]: 230 nM
- Kd [2]: 241 nM
